These are literature values, as cited in PMC5156371.

The target of data set [1] is MyD88 TIR (Homo sapiens) (UniProt Q99836).
Data set [2] has as its target MAL TIR (Homo sapiens) (UniProt P58753).
The target in data set [3] is MyD88 TIR (Homo sapiens) (UniProt Q99836). The source holds these as a separate data set.
Data set [4] concerns the target MAL TIR (Homo sapiens) (UniProt P58753). The source holds these as a separate data set.

“And” between values parts separate entries of the source, which are not always exact repeats. Identical values can stand only once. Like-named read-outs stand apart in the source and are kept apart here.

In the case of A46 87-229 (from UniProt P26672), the Kd – broadly, the constant that tells how readily two partners part at equilibrium – with MyD88 TIR (Homo sapiens) [1] is 890 nM and 1240 nM; with MAL TIR (Homo sapiens) [2] it was 2300 nM and 2240 nM.
On to A46 1-229 (from UniProt P26672), for which the Kd with MyD88 TIR (Homo sapiens) [3] is 460 nM and 520 nM; in the data set with MAL TIR (Homo sapiens) [4], 1440 nM and 1560 nM.
